{"source": "paper PMC8099091", "about": "“Heterogeneous multimeric structure of isocitrate lyase in complex with succinate and itaconate provides novel insights into its inhibitory mechanism” (PLoS ONE, 2021)", "proteins": {"B1": {"name": "isocitrate lyase from Mycobacterium tuberculosis (tbICL) (enzyme)", "chain": "MSVVGTPKSAEQIQQEWDTNPRWKDVTRTYSAEDVVALQGSVVEEHTLARRGAEVLWEQLHDLEWVNALGALTGNMAVQQVRAGLKAIYLSGWQVAGDANLSGHTYPDQSLYPANSVPQVVRRINNALQRADQIAKIEGDTSVENWLAPIVADGEAGFGGALNVYELQKALIAAGVAGSHWEDQLASEKKCGHLGGKVLIPTQQHIRTLTSARLAADVADVPTVVIARTDAEAATLITSDVDERDQPFITGERTREGFYRTKNGIEPCIARAKAYAPFADLIWMETGTPDLEAARQFSEAVKAEYPDQMLAYNCSPSFNWKKHLDDATIAKFQKELAAMGFKFQFITLAGFHALNYSMFDLAYGYAQNQMSAYVELQEREFAAEERGYTATKHQREVGAGYFDRIATTVDPNSSTTALTGSTEEGQFH", "notes": "Tetramer in solution by SEC-MALS; dimer (subunits A and B) in the asymmetric unit, tetramer by twofold crystal symmetry; Theoretical monomer mass 47.08 kDa including the C-terminal His-tag; also called tbICL1; isocitrate lyase isoform 1; not shown: His-tag, C-terminal, kept"}}, "molecular_target": "the molecule itself", "assay": "SEC-MALS; Superdex 200 Increase 10/300 GL, 20 mM Tris-HCl pH 8.0, 150 mM NaCl, 0.4 mL/min, 20°C; repeated under various conditions with the same results"}
{"protein": "B1", "values": [{"measurement": "stoichiometry N", "result": 4}]}
